# Assays:
# Test in all cases: FRET or BRET; 25 nM donor (AF555)-labelled octamers titrated with acceptor (AF647)-labelled octamers, serial dilutions from 100 nM; 45 mM KCl, 50 mM Tris-HCl pH 8.0; room temperature, 1 h equilibration; triplicate; PCA and curve fit; apparent Kd of end-to-end association of rods
# [1] = target: T1, Cdc11(E294C)-capped, otherwise Cys-less septin hetero-octamer (Cdc11-Cdc12-Cdc3-Cdc10-Cdc10-Cdc3-Cdc12-Cdc11) (S. cerevisiae, UniProt P32458 1-415; P32468 1-407; P32457 1-520; P25342 1-322, C43F | C137A | C138A | E294C | C40A | C278S | C124V | C253V | C279V | C266S, Alexa Fluor 555 maleimide (donor) or Alexa Fluor 647 maleimide (acceptor) on C294 (E294C); 0.7-0.8 dye molecules per subunit); conditions: both partners purified
# T1 construct: intact CTE (residues 303-415) restored; Cdc12, S. cerevisiae mitotic septin, Cys-less variant; Cdc3, S. cerevisiae mitotic septin, Cys-less variant; Cdc10, S. cerevisiae mitotic septin, Cys-less variant; The same preparation was labelled separately with donor (AF555) or acceptor (AF647); both are written as this one molecule; also called Cdc11^AF555; Cdc11^AF647; source: E. coli NiCo21 (DE3), …
# [2] = target: T1, Cdc11(E294C)-capped, otherwise Cys-less …; conditions: both partners purified; remark: listed apart in the source
# [3] = target: T2, Shs1(E344C)-capped, otherwise Cys-less septin hetero-octamer (Shs1-Cdc12-Cdc3-Cdc10-Cdc10-Cdc3-Cdc12-Shs1) (S. cerevisiae, UniProt Q07657 1-551; P32468 1-407; P32457 1-520; P25342 1-322, C29V | C148S | E344C | C40A | C278S | C124V | C253V | C279V | C266S, Alexa Fluor 555 maleimide (donor) or Alexa Fluor 647 maleimide (acceptor) on C344 (E344C)); conditions: both partners purified
# T2 construct: Cdc12, S. cerevisiae mitotic septin, Cys-less variant; Cdc3, S. cerevisiae mitotic septin, Cys-less variant; Cdc10, S. cerevisiae mitotic septin, Cys-less variant; Donor- and acceptor-labelled preparations are written as this one molecule; also called Shs1^AF555; Shs1^AF647; source: E. coli NiCo21 (DE3), subunits co-expressed, purified (IMAC, chitin-agarose flow-through, SEC), maleimide …
# [4] = target: T3, Shs1(Δ2–18/Δα0 E344C)-capped, otherwise Cys-less septin hetero-octamer (S. cerevisiae, UniProt Q07657 1-551; P32468 1-407; P32457 1-520; P25342 1-322, Δ2–18 | C29V | C148S | E344C | C40A | C278S | C124V | C253V | C279V | C266S, Alexa Fluor 555 maleimide (donor) on C344 (E344C)); conditions: both partners purified
# T3 construct: Cdc12, S. cerevisiae mitotic septin, Cys-less variant; Cdc3, S. cerevisiae mitotic septin, Cys-less variant; Cdc10, S. cerevisiae mitotic septin, Cys-less variant; also called Shs1 Δα0^AF555; Shs1(Δα0) complexes; source: E. coli NiCo21 (DE3), subunits co-expressed, purified (IMAC, chitin-agarose flow-through, SEC), maleimide dye-labelled; not shown: His6, N-terminal, kept; copies: 2 + 2 + 2 + 2
# [5] = target: the molecule itself
# T3 sequence (Q07657 other isoform, or with tags, fused parts or gaps with the stated changes): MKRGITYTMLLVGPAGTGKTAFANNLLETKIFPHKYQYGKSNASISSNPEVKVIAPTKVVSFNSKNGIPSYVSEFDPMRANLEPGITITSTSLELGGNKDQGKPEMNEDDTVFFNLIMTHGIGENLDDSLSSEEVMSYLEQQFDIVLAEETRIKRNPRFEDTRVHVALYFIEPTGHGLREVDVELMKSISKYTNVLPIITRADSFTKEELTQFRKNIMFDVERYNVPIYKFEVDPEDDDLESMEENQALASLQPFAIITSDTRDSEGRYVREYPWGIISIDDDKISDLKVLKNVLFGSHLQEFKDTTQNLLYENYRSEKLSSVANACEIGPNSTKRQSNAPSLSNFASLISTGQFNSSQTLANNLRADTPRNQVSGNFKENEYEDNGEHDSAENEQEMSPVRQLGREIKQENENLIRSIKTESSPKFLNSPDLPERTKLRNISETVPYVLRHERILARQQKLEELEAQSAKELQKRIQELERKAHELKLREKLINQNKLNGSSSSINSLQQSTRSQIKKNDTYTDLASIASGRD
Kd [1],Kd [2],Kd [3],Kd [4],Binder,Kd [5]
30.4 nM,,,,"Shs1(E344C ΔCTE)-capped, otherwise Cys-less septin hetero-octamer (complex, S. cerevisiae, Alexa Fluor 555 maleimide (donor) on C344 (E344C), Cdc12, S. cerevisiae mitotic septin, Cys-less variant; Cdc3, S. cerevisiae mitotic septin, Cys-less variant; Cdc10, S. cerevisiae mitotic septin, Cys-less variant; also called Shs1 ΔCTE^AF555; source: E. coli NiCo21 (DE3), subunits co-expressed, purified (IMAC, chitin-agarose flow-through, SEC), maleimide dye-labelled; not shown: His6, N-terminal, kept; copies: 2 + 2 + 2 + 2) chain 1: MSTASTPPINLFRRKKEHKRGITYTMLLVGPAGTGKTAFANNLLETKIFPHKYQYGKSNASISSNPEVKVIAPTKVVSFNSKNGIPSYVSEFDPMRANLEPGITITSTSLELGGNKDQGKPEMNEDDTVFFNLIMTHGIGENLDDSLSSEEVMSYLEQQFDIVLAEETRIKRNPRFEDTRVHVALYFIEPTGHGLREVDVELMKSISKYTNVLPIITRADSFTKEELTQFRKNIMFDVERYNVPIYKFEVDPEDDDLESMEENQALASLQPFAIITSDTRDSEGRYVREYPWGIISIDDDKISDLKVLKNVLFGSHLQEFKDTTQNLLYENYRSEKLSSVANACEIGP chain 2: MSAATATAAPVPPPVGISNLPNQRYKIVNEEGGTFTVMLAGESGLGKTTFINTLFQTVLKRADGQQHRQEPIRKTVEIDITRALLEEKHFELRVNVIDTPGFGDNVNNNKAWQPLVDFIDDQHDSYMRQEQQPYRTKKFDLRVHAVLYFIRPTGHGLKPIDIETMKRLSTRANLIPVIAKADTLTAQELQQFKSRIRQVIEAQEIRIFTPPLDADSKEDAKSGSNPDSAAVEHARQLIEAMPFAIVGSEKKFDNGQGTQVVARKYPWGLVEIENDSHSDFRKLRALLLRTYLLDLISTTQEMHYETYRRLRLEGHENTGEGNEDFTLPAIAPARKLSHNPRYKEEENALKKYFTDQVKAEEQRFRQWEQNIVNERIRLNGDLEEIQGKVKKLEEQVKSLQVKKSHLK chain 3: MSLKEEQVSIKQDPEQEERQHDQFNDVQIKQESQDHDGVDSQYTNGTQNDDSERFEAAESDVKVEPGLGMGITSSQSEKGQVLPDQPEIKFIRRQINGYVGFANLPKQWHRRSIKNGFSFNLLVVGPDGIGKTTLMKTLFNNDDIEANLVKDYEEELANDQEEEEGQGEGHENQSQEQRHKVKIKSYESVIEENGVKLNLNVIDTEGFGDFLNNDQKSWDPIIKEIDSRFDQYLDAENKINRHSINDKRIHAVLYFIEPTGHYLKPLDLKFMQSVYEKVNLIPVIAKSDILTDEEILSFKKTIMNQLIQSNIELFKPPIYSNDDAENSHLSERLFSSLPYAVIGSNDIVENYSGNQVRGRSYPWGVIEVDNDNHSDFNLLKNLLIKQFMEELKERTSKILYENYRSSKLAKLGIKQDNSVFKEFDPISKQQEEKTLHEAKLAKLEIEMKTVFQQKVSEKEKKLQKSETELFARHKEMKEKLTKQLKALEDKKKQLELSINSASPNVNHSPVPTKKKGFLR chain 4: MDPLSSVQPASYVGFDTITNQIEHRLLKKGFQFNIMVVGQSGLGKSTLINTLFASHLIDSATGDDISALPVTKTTEMKISTHTLVEDRVRLNINVIDTPGFGDFIDNSKAWEPIVKYIKEQHSQYLRKELTAQRERFITDTRVHAILYFLQPNGKELSRLDVEALKRLTEIANVIPVIGKSDTLTLDERTEFRELIQNEFEKYNFKIYPYDSEELTDEELELNRSVRSIIPFAVVGSENEIEINGETFRGRKTRWSAINVEDINQSDFVYLREFLIRTHLQDLIETTSYIHYEGFRARQLIALKENANSRSSAHMSSNAIQR",
,19.5 nM,8.13 nM,9.89 nM,"Cdc11(Δα0 E294C)-capped, otherwise Cys-less septin hetero-octamer (complex, S. cerevisiae, Alexa Fluor 555 maleimide (donor) or Alexa Fluor 647 maleimide (acceptor) on C294 (E294C), Cdc12, S. cerevisiae mitotic septin, Cys-less variant; Cdc3, S. cerevisiae mitotic septin, Cys-less variant; Cdc10, S. cerevisiae mitotic septin, Cys-less variant; also called Cdc11 Δα0^AF555; Cdc11 Δα0^AF647; source: E. coli NiCo21 (DE3), subunits co-expressed, purified (IMAC, chitin-agarose flow-through, SEC), maleimide dye-labelled; not shown: His6, N-terminal, kept; copies: 2 + 2 + 2 + 2) chain 1: MRGITFTVMIVGQSGSGRSTFINTLFGQQVVDTSTTILLPTDTSTEIDLQLREETVELEDDEGVKIQLNIIDTPGFGDSLDNSPSFEIISDYIRHQYDEILLEESRVRRNPRFKDGRVHAALYLINPTGHGLKEIDVEFIRQLGSLVNIIPVISKSDSLTRDELKLNKKLIMEDIDRWNLPIYNFPFDEDEISDEDYETNMYLRTLLPFAIIGSNEVYEMGGDVGTIRGRKYPWGILDVEDSSISDFVILRNALLISHLHDLKNYTHEILYERYRTCALSGESVAAESIRPNLTKLNGSSSSSTTTRRNTNPFKQSNNINNDVLNPASDMHGQSTGENNETYMTREEQIRLEEERLKAFEERVQQELLLKRQELLQREKELREIEARLEKEAKIKQEE chain 2: MSAATATAAPVPPPVGISNLPNQRYKIVNEEGGTFTVMLAGESGLGKTTFINTLFQTVLKRADGQQHRQEPIRKTVEIDITRALLEEKHFELRVNVIDTPGFGDNVNNNKAWQPLVDFIDDQHDSYMRQEQQPYRTKKFDLRVHAVLYFIRPTGHGLKPIDIETMKRLSTRANLIPVIAKADTLTAQELQQFKSRIRQVIEAQEIRIFTPPLDADSKEDAKSGSNPDSAAVEHARQLIEAMPFAIVGSEKKFDNGQGTQVVARKYPWGLVEIENDSHSDFRKLRALLLRTYLLDLISTTQEMHYETYRRLRLEGHENTGEGNEDFTLPAIAPARKLSHNPRYKEEENALKKYFTDQVKAEEQRFRQWEQNIVNERIRLNGDLEEIQGKVKKLEEQVKSLQVKKSHLK chain 3: MSLKEEQVSIKQDPEQEERQHDQFNDVQIKQESQDHDGVDSQYTNGTQNDDSERFEAAESDVKVEPGLGMGITSSQSEKGQVLPDQPEIKFIRRQINGYVGFANLPKQWHRRSIKNGFSFNLLVVGPDGIGKTTLMKTLFNNDDIEANLVKDYEEELANDQEEEEGQGEGHENQSQEQRHKVKIKSYESVIEENGVKLNLNVIDTEGFGDFLNNDQKSWDPIIKEIDSRFDQYLDAENKINRHSINDKRIHAVLYFIEPTGHYLKPLDLKFMQSVYEKVNLIPVIAKSDILTDEEILSFKKTIMNQLIQSNIELFKPPIYSNDDAENSHLSERLFSSLPYAVIGSNDIVENYSGNQVRGRSYPWGVIEVDNDNHSDFNLLKNLLIKQFMEELKERTSKILYENYRSSKLAKLGIKQDNSVFKEFDPISKQQEEKTLHEAKLAKLEIEMKTVFQQKVSEKEKKLQKSETELFARHKEMKEKLTKQLKALEDKKKQLELSINSASPNVNHSPVPTKKKGFLR chain 4: MDPLSSVQPASYVGFDTITNQIEHRLLKKGFQFNIMVVGQSGLGKSTLINTLFASHLIDSATGDDISALPVTKTTEMKISTHTLVEDRVRLNINVIDTPGFGDFIDNSKAWEPIVKYIKEQHSQYLRKELTAQRERFITDTRVHAILYFLQPNGKELSRLDVEALKRLTEIANVIPVIGKSDTLTLDERTEFRELIQNEFEKYNFKIYPYDSEELTDEELELNRSVRSIIPFAVVGSENEIEINGETFRGRKTRWSAINVEDINQSDFVYLREFLIRTHLQDLIETTSYIHYEGFRARQLIALKENANSRSSAHMSSNAIQR",33.2 nM
